The target of this test is MCP-1 (known wild type human MCP-1, commercial, R&D #279-MC) (human) (UniProt P13500). Put plainly: cell-based or functional assay.
Chain of UniProt P13500 (P13500 24-99): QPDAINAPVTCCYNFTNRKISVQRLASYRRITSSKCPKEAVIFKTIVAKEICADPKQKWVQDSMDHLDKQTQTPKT

In turn, “MCP-1-65-Fc variant (MCP-1 splice variant MCP-1-65 fused to mutated N297A human IgG1 Fc) (Fc fusion)” registered an inhibition of MCP-1-induced THP-1 cell migration (transwell, cells counted by FACS), IC50 of 400 pM and an inhibition of MCP-1-induced THP-1 cell migration (transwell, cells counted by FACS), percent inhibition below 90%.
